This test concerns the target SARS-CoV-2 S 2P prefusion-stabilized ectodomain trimer (SARS-CoV-2 (Wuhan-Hu-1), stabilised). Put plainly: SPR.

The Kd is the equilibrium constant for the complex coming apart. Higher therefore signals a looser complex.

B1: S2P6 Fab fragment (Fab, V domains shown)
VH: EVQLVQSGAEVKKPGASVKVSCKASGYTFTSQYMHWVRQAPGQGLEWIGIINPSGVHTSYAQKFQGRVTLTRDTSTSTLYMELSSLRSEDTAVYYCARGSPKGAFDYWGQGTLVTVSS
VL: not shown
B1 registered a Kd of 7 nM.

The values are drawn from paper doi:10.1101/2021.05.09.442808 (bioRxiv, 2021).
